Experimental data reported in patent US20170035878A1 (ALBANY MEDICAL COLLEGE, published 2017).

Experiments:
[1] = biological target: T1, human FcγRI on hFcγRI-expressing U937 cells (human, UniProt P12314 16-374); experiment: flow cytometry on U937 cells, NSO supernatant, in the presence of human IgG, Rb anti-PspA or Rb anti-HSA detection
T1 construct: whole, on cells; also called hFcγRI on U937 cells

[2] = biological target: T2, human FcγRI (hFcγRI), coated on ELISA wells (human, UniProt P12314 16-288); experiment: ELISA, hFcγRI-coated wells, NSO supernatant, Rb anti-PspA or Rb anti-HSA detection
T2 construct: also called CD64
T2 sequence (P12314 16-288 limits assumed): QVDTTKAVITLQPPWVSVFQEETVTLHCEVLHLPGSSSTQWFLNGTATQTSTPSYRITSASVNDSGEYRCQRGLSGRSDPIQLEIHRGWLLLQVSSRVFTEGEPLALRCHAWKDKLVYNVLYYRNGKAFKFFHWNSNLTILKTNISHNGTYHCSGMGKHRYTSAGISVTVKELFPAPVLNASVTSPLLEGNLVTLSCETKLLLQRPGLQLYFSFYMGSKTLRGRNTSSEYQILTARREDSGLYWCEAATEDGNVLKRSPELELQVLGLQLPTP

T1 sequence (P12314 16-374): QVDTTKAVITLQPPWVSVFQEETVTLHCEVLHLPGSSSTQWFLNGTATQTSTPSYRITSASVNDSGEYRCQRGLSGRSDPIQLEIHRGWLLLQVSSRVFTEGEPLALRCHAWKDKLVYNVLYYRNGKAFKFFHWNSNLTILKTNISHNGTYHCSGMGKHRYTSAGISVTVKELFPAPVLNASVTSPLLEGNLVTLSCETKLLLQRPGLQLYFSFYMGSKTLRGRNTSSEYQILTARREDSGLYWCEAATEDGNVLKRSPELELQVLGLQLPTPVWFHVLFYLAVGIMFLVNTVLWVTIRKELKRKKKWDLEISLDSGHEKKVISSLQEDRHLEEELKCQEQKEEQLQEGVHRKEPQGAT

B1: trivalent anti-hFcγRI-PspA fusion protein (other)
chain: DIQLTQSPSSLSASVGDRVTITCKSSQSVLYSSNQKNYLAWYQQKPGKAPKLLIYWASTRESGVPSRFSGSGSGTDFTFTISSLQPEDIATYYCHQYLSSWTFGQGTKVEIKSSGGGGSGGGGSGGGGSEVQLVESGGGVVQPGRSLRLSCSSSGFIFSDNYMYWVRQAPGKGLEWVATISDGGSYTYYPDSVKGRFTISRDNSKNTLFLQMDSLRPEDTGVYFCARGYYRYEGAMDYWGQGTPVTVSSGSTGGGGSTSAGGGGSSDIQLTQSPSSLSASVGDRVTITCKSSQSVLYSSNQKNYLAWYQQKPGKAPKLLIYWASTRESGVPSRFSGSGSGTDFTFTISSLQPEDIATYYCHQYLSSWTFGQGTKVEIKSSGGGGSGGGGSGGGGSEVQLVESGGGVVQPGRSLRLSCSSSGFIFSDNYMYWVRQAPGKGLEWVATISDGGSYTYYPDSVKGRFTISRDNSKNTLFLQMDSLRPEDTGVYFCARGYYRYEGAMDYWGQGTPVTVSSGSTGGGGSTASGGGGSSDIQLTQSPSSLSASVGDRVTITCKSSQSVLYSSNQKNYLAWYQQKPGKAPKLLIYWASTRESGVPSRFSGSGSGTDFTFTISSLQPEDIATYYCHQYLSSWTFGQGTKVEIKSSGGGGSGGGGSGGGGSEVQLVESGGGVVQPGRSLRLSCSSSGFIFSDNYMYWVRQAPGKGLEWVATISDGGSYTYYPDSVKGRFTISRDNSKNTLFLQMDSLRPEDTGVYFCARGYYRYEGAMDYWGQGTPVTVSSGSTGGGGSTEFMEESPVASQSKAEKDYDAAKKDAKNAKKAVEDAQKALDDAKAAQKKYDEDQKKTEEKAALEKAASEEMDKAVAAVQQAYLAYQQATDKAAKDAADKMIDEAKKREEEAKTKFNTVRAMVVPEPEQLAETKKKSEEAKQKAPELTKKLEEAKAKLEEAEKKATEAKQKVDAEEVAPQAKIAELENQVHRLEQELKEIDESESEDYAKEGFRAPLQSKLDAKKAKLSKLEELSDKIDELDAEIAKLEDQLKAAEENNNVEDYFKEGLEKTIAAKKAELEKTEADLKKAVNEPEKPAPAPETPAPELEHHHHHH
notes: Single-chain fusion: three humanized 22 (H22) anti-human FcγRI VL-VH scFv units, then PspA (S. pneumoniae strain Rx1) and a His tag; Tested as unpurified supernatant of transfected NSO cells; also called Trivalent Anti-FcγRI-PspA; Construct B
[1]
  binding result: binds
[2]
  binding result: binds
